Test results from IntAct's records for PubMed 30354839.

B1: RNA-binding protein FUS (Homo sapiens), P35637 (parent)
chain: MASNDYTQQATQSYGAYPTQPGQGYSQQSSQPYGQQSYSGYSQSTDTSGYGQSSYSSYGQSQNTGYGTQSTPQGYGSTGGYGSSQSSQSSYGQQSSYPGYGQQPAPSSTSGSYGSSSQSSSYGQPQSGSYSQQPSYGGQQQSYGQQQSYNPPQGYGQQNQYNSSSGGGGGGGGGGNYGQDQSSMSSGGGSGGGYGNQDQSGGGGSGGYGQQDRGGRGRGGSGGGGGGGGGGYNRSSGGYEPRGRGGGRGGRGGMGGSDRGGFNKFGGPRDQGSRHDSEQDNSDNNTIFVQGLGENVTIESVADYFKQIGIIKTNKKTGQPMINLYTDRETGKLKGEATVSFDDPPSAKAAIDWFDGKEFSGNPIKVSFATRRADFNRGGGNGRGGRGRGGPMGRGGYGGGGSGGGGRGGFPSGGGGGGGQQRAGDWKCPNPTCENMNFSWRNECNQCKAPKPDGPGGGPGGSHMGGNYGDDRRGGRGGYDRGGYRGRGGDRGGFRGGRGGGDRGGFGPGKMDSRGEHRQDRRERPY
B2: RNA-binding protein Raly (Homo sapiens), Q9UKM9 (parent)
chain: MSLKLQASNVTNKNDPKSINSRVFIGNLNTALVKKSDVETIFSKYGRVAGCSVHKGYAFVQYSNERHARAAVLGENGRVLAGQTLDINMAGEPKPDRPKGLKRAASAIYSGYIFDYDYYRDDFYDRLFDYRGRLSPVPVPRAVPVKRPRVTVPLVRRVKTNVPVKLFARSTAVTTSSAKIKLKSSELQAIKTELTQIKSNIDALLSRLEQIAAEQKANPDGKKKGDGGGAGGGGGGGGSGGGGSGGGGGGGSSRPPAPQENTTSEAGLPQGEARTRDDGDEEGLLTHSEEELEHSQDTDADDGALQ

Experiments:
[1] = variants of: B1; conditions: with raly_mouse Raly
[2] = variants of: B1; conditions: with raly_human RALY
[3] = variants of: B2; conditions: with fus_human FUS

Row | Variant | effect of a mutation on the interaction [1] | effect of a mutation on the interaction [2] | effect of a mutation on the interaction [3]
1 | MASNDYTQQATQSYGAYPTQPGQGYSQQSSQPYGQQSYSGYSQSTDTSGYGQSSYSSYGQSQNTGYGTQSTPQGYGSTGGYGSSQSSQSSYGQQSSYPGYGQQPAPSSTSGSYGSSSQSSSYGQPQSGSYSQQPSYGGQQQSYGQQQSYNPPQGYGQQNQYNSSSGGGGGGGGGGNYGQDQSSMSSGGGSGGGYGNQDQSGGGGSGGYGQQDRGGRGRGGSGGGGGGGGGGYNRSSGGYEPRGRGGGRGGRGGMGGSDRGGFNKFGGPRDQGSRHDSEQDNSDNNTIFVQGLGENVTIESVADYFKQIGIIKTNKKTGQPMINLYTDRETGKLKGEATVSFDDPPSAKAAIDWFDGKEFSGNPIKVSFATRRADFNRGGGNGRGGRGRGGPMGRGGYGGGGSGGGGRGGFPSGGGGGGGQQRAGDWKCPNPTCENMNFSWRNECNQCKAPKPDGPGGGPGGSHMGGNYGDDRRGGRGGYDRGGYRGRGGDRGGFRGGRGGGDRGGFGPGKMDSRGEHRQDCRERPY [R521C] | with no effect | with no effect | –
2 | P148A;R149A | – | – | with no effect

More lines, now with the values ahead:

Row | effect of a mutation on the interaction [1] | effect of a mutation on the interaction [2] | effect of a mutation on the interaction [3] | Variant
3 | with no effect | with no effect | – | MASNDYTQQATQSYGAYPTQPGQGYSQQSSQPYGQQSYSGYSQSTDTSGYGQSSYSSYGQSQNTGYGTQSTPQGYGSTGGYGSSQSSQSSYGQQSSYPGYGQQPAPSSTSGSYGSSSQSSSYGQPQSGSYSQQPSYGGQQQSYGQQQSYNPPQGYGQQNQYNSSSGGGGGGGGGGNYGQDQSSMSSGGGSGGGYGNQDQSGGGGSGGYGQQDRGGRGRGGSGGGGGGGGGGYNRSSGGYEPRGRGGGRGGRGGMGGSDRGGFNKFGGPRDQGSRHDSEQDNSDNNTIFVQGLGENVTIESVADYFKQIGIIKTNKKTGQPMINLYTDRETGKLKGEATVSFDDPPSAKAAIDWFDGKEFSGNPIKVSFATRRADFNRGGGNGRGGRGRGGPMGRGGYGGGGSGGGGRGGFPSGGGGGGGQQRAGDWKCPNPTCENMNFSWRNECNQCKAPKPDGPGGGPGGSHMGGNYGDDRRGGRGGYDRGGYRGRGGDRGGFRGGRGGGDRGGFGPGKMDSRGEHRQDRRERLY [P525L]
4 | with no effect | with no effect | – | MASNDYTQQATQSYGAYPTQPGQGYSQQSSQPYGQQSYSGYSQSTDTSGYGQSSYSSYGQSQNTGYGTQSTPQGYGSTGGYGSSQSSQSSYGQQSSYPGYGQQPAPSSTSGSYGSSSQSSSYGQPQSGSYSQQPSYGGQQQSYGQQQSYNPPQGYGQQNQYNSSSGGGGGGGGGGNYGQDQSSMSSGGGSGGGYGNQDQSGGGGSGGYGQQDRGGRGRGGSGGGGGGGGGGYNRSSGGYEPRGRGGGRGGRGGMGGSDRGGFNKFGGPRDQGSRHDSEQDNSDNNTIFVQGLGENVTIESVADYFKQIGIIKTNKKTGQPMINLYTDRETGKLKGEATVSFDDPPSAKAAIDWFDGKEFSGNPIKVSFATRRADFNRGGGNGRGGRGRGGPMGRGGYGGGGSGGGGRGGFPSGGGGGGGQQRAGDWKCPNPTCENMNFSWRNECNQCKAPKPDGPGGGPGGSHMGGNYGDDRRGGRGGYDRGGYRGRGGDRGGFRGGRGGGDRGGFGPGKMDSRGEHRQDHRERPY [R521H]
